Test results reported in article PMC10219423, “Characterization of a New Thermostable and Organic Solution-Tolerant Lipase from Pseudomonas fluorescens and Its Application in the Enrichment of Polyunsaturated Fatty Acids” (International Journal of Molecular Sciences, 2023).

System: CCCCCCCC(=O)Oc1ccc([N+](=O)[O-])cc1
Test: purified protein
Format: biochemical, Pseudomonas fluorescens
Conditions: Tris-HCl 50 mM, pH 8.0, 40 °C, ethanol and acetonitrile present, 0.01-2.0 mM substrate

Question: With LipB (Pseudomonas fluorescens) as the substance, how does the Km read?
Answer: 810 µM
